{"source": "the supplement of paper PMC5998384", "key": {"HeLa Kyoto [1]": {"tested_on": "HeLa Kyoto", "experiment": "solubility in G1/S (NP-40 vs SDS abundance) (log2 ratio); higher = more soluble", "conditions": "cell cycle stage: G1/S"}, "HeLa Kyoto [2]": {"tested_on": "HeLa Kyoto", "experiment": "melting temperature (median over replicates), in situ; higher = more thermally stable"}, "HeLa Kyoto [3]": {"tested_on": "HeLa Kyoto", "experiment": "solubility change mitosis vs G1/S (difference of NP-40 vs SDS log2 ratios) (log2 ratio difference); higher = more soluble in mitosis"}, "HeLa Kyoto [4]": {"tested_on": "HeLa Kyoto", "experiment": "thermal stability score vs G1/S (z-score of summed log2 fold changes over temperatures); higher = more thermally stable than in G1/S"}, "[5]": {"conditions": "cell cycle stage: early G1 (4.5 h after nocodazole release)"}}, "data": [{"sequence": "MRRKEKRLLQAVALVLAALVLLPNVGLWALYRERQPDGTPGGSGAAVAPAAGQGSHSRQKKTFFLGDGQKLKDWHDKEAIRRDAQRVGNGEQGRPYPMTDAERVDQAYRENGFNIYVSDKISLNRSLPDIRHPNCNSKRYLETLPNTSIIIPFHNEGWSSLLRTVHSVLNRSPPELVAEIVLVDDFSDREHLKKPLEDYMALFPSVRILRTKKREGLIRTRMLGASVATGDVITFLDSHCEANVNWLPPLLDRIARNRKTIVCPMIDVIDHDDFRYETQAGDAMRGAFDWEMYYKRIPIPPELQKADPSDPFESPVMAGGLFAVDRKWFWELGGYDPGLEIWGGEQYEISFKVWMCGGRMEDIPCSRVGHIYRKYVPYKVPAGVSLARNLKRVAEVWMDEYAEYIYQRRPEYRHLSAGDVAVQKKLRSSLNCKSFKWFMTKIAWDLPKFYPPVEPPAAAWGEIRNVGTGLCADTKHGALGSPLRLEGCVRGRGEAAWNNMQVFTFTWREDIRPGDPQHTKKFCFDAISHTSPVTLYDCHSMKGNQLWKYRKDKTLYHPVSGSCMDCSESDHRIFMNTCNPSSLTQQWLFEHTNSTVLEKFNRN [GALNT10]", "values": [{"measurement": "solubility in G1/S (log2)", "setting": "HeLa Kyoto [1]", "result": -0.106}, {"measurement": "melting temperature", "setting": "HeLa Kyoto [2]; cell cycle stage: G1/S", "result": 49.9, "unit": "°C"}, {"measurement": "melting temperature", "setting": "HeLa Kyoto [2]; cell cycle stage: mitosis", "result": 52.5, "unit": "°C"}, {"measurement": "solubility change mitosis (log2)", "setting": "HeLa Kyoto [3]", "result": -0.0786}, {"measurement": "thermal stability score", "setting": "HeLa Kyoto [4]; [5]", "result": 0.401}, {"measurement": "thermal stability score", "setting": "HeLa Kyoto [4]; cell cycle stage: mitosis", "result": 0.507}]}, {"sequence": "MRRLPRALLLQLRLALLVAAGAPEVLVSAPRSLVWGPGLQAAVVLPVRYFYLQAVNSEGQNLTRSPAGETPFKVVVKSLSPKELVRIHVPKPLDRNDGTFLMRYRMYETVDEGLKIEVLYGDEHVAQSPYILKGPVYHEYCECPEDPQAWQKTLSCPTKEPQIAKDFASFPSINLQQMLKEVPKRFGDERGAIVHYTILNNHVYRRSLGKYTDFKMFSDEILLSLTRKVLLPDLEFYVNLGDWPLEHRKVNGTPSPIPIISWCGSLDSRDVVLPTYDITHSMLEAMRGVTNDLLSIQGNTGPSWINKTERAFFRGRDSREERLQLVQLSKENPQLLDAGITGYFFFQEKEKELGKAKLMGFFDFFKYKYQVNVDGTVAAYRYPYLMLGDSLVLKQDSPYYEHFYMALEPWKHYVPIKRNLSDLLEKVKWAKENDEEAKKIAKEGQLMARDLLQPHRLYCYYYQVLQKYAERQSSKPEVRDGMELVPQPEDSTAICQCHRKKPSREEL [KDELC2]", "values": [{"measurement": "solubility in G1/S (log2)", "setting": "HeLa Kyoto [1]", "result": 0.282}, {"measurement": "melting temperature", "setting": "HeLa Kyoto [2]; cell cycle stage: G1/S", "result": 53.8, "unit": "°C"}, {"measurement": "melting temperature", "setting": "HeLa Kyoto [2]; cell cycle stage: mitosis", "result": 54.9, "unit": "°C"}, {"measurement": "solubility change mitosis (log2)", "setting": "HeLa Kyoto [3]", "result": -0.048}, {"measurement": "thermal stability score", "setting": "HeLa Kyoto [4]; [5]", "result": 4.98}, {"measurement": "thermal stability score", "setting": "HeLa Kyoto [4]; cell cycle stage: mitosis", "result": 4.71}]}, {"sequence": "MRSAAAAPRSPAVATESRRFAAARWPGWRSLQRPARRSGRGGGGAAPGPYPSAAPPPPGPGPPPSRQSSPPSASDCFGSNGNGGGAFRPGSRRLLGLGGPPRPFVVLLLPLASPGAPPAAPTRASPLGARASPPRSGVSLARPAPGCPRPACEPVYGPLTMSLKPQQQQQQQQQQQQQQQQQQQQQQQPPPAAANVRKPGGSGLLASPAAAPSPSSSSVSSSSATAPSSVVAATSGGGRPGLGRGRNSNKGLPQSTISFDGIYANMRMVHILTSVVGSKCEVQVKNGGIYEGVFKTYSPKCDLVLDAAHEKSTESSSGPKREEIMESILFKCSDFVVVQFKDMDSSYAKRDAFTDSAISAKVNGEHKEKDLEPWDAGELTANEELEALENDVSNGWDPNDMFRYNEENYGVVSTYDSSLSSYTVPLERDNSEEFLKREARANQLAEEIESSAQYKARVALENDDRSEEEKYTAVQRNSSEREGHSINTRENKYIPPGQRNREVISWGSGRQNSPRMGQPGSGSMPSRSTSHTSDFNPNSGSDQRVVNGGVPWPSPCPSPSSRPPSRYQSGPNSLPPRAATPTRPPSRPPSRPSRPPSHPSAHGSPAPVSTMPKRMSSEGPPRMSPKAQRHPRNHRVSAGRGSISSGLEFVSHNPPSEAATPPVARTSPSGGTWSSVVSGVPRLSPKTHRPRSPRQNSIGNTPSGPVLASPQAGIIPTEAVAMPIPAASPTPASPASNRAVTPSSEAKDSRLQDQRQNSPAGNKENIKPNETSPSFSKAENKGISPVVSEHRKQIDDLKKFKNDFRLQPSSTSESMDQLLNKNREGEKSRDLIKDKIEPSAKDSFIENSSSNCTSGSSKPNSPSISPSILSNTEHKRGPEVTSQGVQTSSPACKQEKDDKEEKKDAAEQVRKSTLNPNAKEFNPRSFSQPKPSTTPTSPRPQAQPSPSMVGHQQPTPVYTQPVCFAPNMMYPVPVSPGVQPLYPIPMTPMPVNQAKTYRAVPNMPQQRQDQHHQSAMMHPASAAGPPIAATPPAYSTQYVAYSPQQFPNQPLVQHVPHYQSQHPHVYSPVIQGNARMMAPPTHAQPGLVSSSATQYGAHEQTHAMYACPKLPYNKETSPSFYFAISTGSLAQQYAHPNATLHPHTPHPQPSATPTGQQQSQHGGSHPAPSPVQHHQHQAAQALHLASPQQQSAIYHAGLAPTPPSMTPASNTQSPQNSFPAAQQTVFTIHPSHVQPAYTNPPHMAHVPQAHVQSGMVPSHPTAHAPMMLMTTQPPGGPQAALAQSALQPIPVSTTAHFPYMTHPSVQAHHQQQL [ATXN2]", "values": [{"measurement": "solubility in G1/S (log2)", "setting": "HeLa Kyoto [1]", "result": -0.281}, {"measurement": "melting temperature", "setting": "HeLa Kyoto [2]; cell cycle stage: G1/S", "result": 52.5, "unit": "°C"}, {"measurement": "melting temperature", "setting": "HeLa Kyoto [2]; cell cycle stage: mitosis", "result": 51.9, "unit": "°C"}, {"measurement": "solubility change mitosis (log2)", "setting": "HeLa Kyoto [3]", "result": 0.278}, {"measurement": "thermal stability score", "setting": "HeLa Kyoto [4]; [5]", "result": -0.37}, {"measurement": "thermal stability score", "setting": "HeLa Kyoto [4]; cell cycle stage: mitosis", "result": -1.31}]}]}
